Test results taken from patent publication US20040208887A1 (MOLECULES OF MAN, published 2004).

B1: Fab clone 1:8 (Fab, V domains shown)
VH: EVQLLESGGGLVEPGRSLRLSCAASGFNFGDYAIHWVRQGPGKGLEWVAGISWNSGSIGYADSVKGRFIISRDNAKKTLFLQMNTLRTEDTALYYCVKETGAQGVAGSGAYYFHNWGQGTLVTVSS
VL: AELTQSPSSLSASIGDRVTITCRASQGISNYVAWYQQRPGKVPKLLIFGASALHSGVPSRFSGSGSGTDFTLTITSLQPEDVATYYCQKYRSAPLTFGPGTRVDLK
notes: Human Fab (gamma1 Fd + kappa), crude periplasmic preparation, approx. 0.01 ug Fab/ml
B2: Fab clone 1:9 (Fab, V domains shown)
VH: EVQLLESGPGLVKPSETLSLTCTVSGNSISSGYYWVWFRQSPGKGLEWIASIYHSGSTYYNPSLRSRVSISVDTSKKQFSLKLSSVTAADTAVYYCARDSAKTTRYFVHWGQGTLVTVSS
VL: AELTQSPGTLSLSPGERATLSCRASQSVSSSYLAWYQQKAGQAPRLLIYGASRRATGIPVRFSGSGSGAEFTLTISSLQSEDSAVYYCQHYHNWPAMYTFGQGTKLEIK
notes: Human Fab (gamma1 Fd + kappa), crude periplasmic preparation, approx. 0.05 ug Fab/ml
B3: Fab clone 2a-5 (Fab, V domains shown)
VH: EVQLLESGPGLVKPSETLSLTCTVSTGSISGYFWSWIRQPPGKGLEWIAYIHNSGNTNYNPSLRSRVTVSIDTSKNQFSLKLTSVTAADTAVYYCARDGGGWDTYLDSWGQGFLVTVSS
VL: AELTQSPSSLSASVGDRVTITCRASQTVSSYLNWYQQKPGKAPKVLIYGISTLQSGVPSRFSGSGSETDFTLTISNLQPEDFAIYYCQQSYSSRTFGQGTKVEIK
notes: Human Fab (gamma1 Fd + kappa), crude periplasmic preparation, approx. 0.44 ug Fab/ml
B4: Fab clone 6a:5 (Fab, V domains shown)
VH: EVQLLESGPGLVKPSQTLSLTCAISGDNVSRKSAAWNWIRQSPSRGLEWLGRTYHMSKWYSVYATSLKSRININVDTSRNQFALQLRSVTPEDTAVYYCAREGPEWAVGGTYGMDVWGQGTTVTVSS
VL: AELTQSPDTLSLSPGERATLSCRASQSVNNNYLAWYQQKPGQAPRLLIYGASSRATGIPDRFSGSGSETDFTLTISRLEPEDFAVYYCQQYDSSRTFGQGTKVEIK
notes: Tested as a human Fab (gamma1 Fd + kappa), crude periplasmic preparation, approx. 0.33 ug Fab/ml
B5: Fab clone 2a-14 (Fab, V domains shown)
VH: VQLLEQSGGGVVQPGRSLRLSCAASGFTFSTYAMHWVRQAPGKGLEWVAVISHDGSNKFYADSVKGRFTISRDSSKNTLYLQMNSLRPGDTAVYYCSRWDRRAEYFQDWGQGTLVTVSS
VL: AELTQSPAFMSATPGDKVNISCKASQDIDDDMNWYQQKPGEAAIFIIQEATTLVPGIPPRFSGSGYGTDFTLTINNIESEDAAYYFCLQHDNFPLTFGQGTKVEIK
notes: Human Fab (gamma1 Fd + kappa), crude periplasmic preparation, approx. 0.72 ug Fab/ml
B6: Fab clone 2a-40 (Fab, V domains shown)
VH: VQLLEQSGGGLVKPGGSLRLSCTASGFTFSGFTFSDHYMSWIRQAPGKGLELVSYIISNGYTNYPDSVKGRFTVSRDNARKSLYLQMNSLRVEDTAIYYCARGLSPSIAGDGFDIWGQGTMVTVSS
VL: B5 VL
notes: Human Fab (gamma1 Fd + kappa), crude periplasmic preparation, approx. 1.0 ug Fab/ml
B7: Fab clone 4:6 (Fab, V domains shown)
VH: VQLLEQSGAEVKKPGASVKVSCKASGYTFTKYYLHWVRQAPGQGLEWMGFINPSGGSTSSAQKFQGRISMTRDTSTTTVYMEVNSVTSEDTAVYYCARVGRLGVGATGAFDLWGQGTMVTVSS
VL: AELTQSPSSLSASVGDRVTITCQASQDINYSLNWYQQKPGKPPKLLIYYASHSDTGVPSRFSGGGSGTRFTLTIYSLQPEDIATYYCQHFDHVPRYTFGPGTKVDLK
notes: Tested as a human Fab (gamma1 Fd + kappa), crude periplasmic preparation, approx. 0.24 ug Fab/ml
B8: Fab clone 1:10 (Fab, V domains shown)
VH: EVQLLESGAEVKKPGESLRISCRGSGYSFPNYWVSWVRQMPGKGLEWMGKIDPSDSETNYSPSFQGHVTISADKSLSIAYLQWNSLKASDTAMYYCARHKRGAPTYKDILTGYYVDGMDVWGQGTTVTVSS
VL: AELTQSPDSLAMSLGERASINCKSSRSLLYSSNNKNYLAWYQQKSGHPPKLLIYWASTRESGVPDRFNGSGSGTDFTLTISSLQAEDVAVYFCQQYYSSPLTFGGGTKVEIK
notes: as for B1
B9: Fab clone 2a-13 (Fab, V domains shown)
VH: EVQLLESGPGLVKPSETLSLTCTVSGGSISDYYWSWIRQPPGKGLEWIGHTYDNGGTKYNPSLKSRASISVDTSKNQVSLRLTSVTAADTAVYYCATAFLDNSGWYTFDSWGQGSLVTV
VL: AELTQSPSSVSASVRDRVTITCRASQGISTWLAWYQQKPGKAPKLLIYAASTLQSGVPSRFSGSGSGTDFTLTIGSLQPEDVATYYCQQANSFPPGALTFGGGTKVEVK
notes: Human Fab (gamma1 Fd + kappa), crude periplasmic preparation, approx. 0.36 ug Fab/ml
B10: Fab clone 2b-17 (Fab, V domains shown)
VH: EVQLLESGGGLVQPGRSLRLSCAASGFTFSNSDMHWVRQAPGKGLEWVTVSSRDGYDNYYADSVRGRFTISRDNSKNTLYLQMNTLRAEDTAVYYCAKRRGYAFDIWGQGTMVTVSS
VL: AELTQSPSSLSASVGDRVTITCRASQSINTYLNWYQQKPGKAPELLIYGASSLQSGVPSRFSGSGSGTDFTLTITSLQAEDFASYFCQQSDSTPRTFGQGTKVEIK
notes: Human Fab (gamma1 Fd + kappa), crude periplasmic preparation, approx. 0.16 ug Fab/ml
B11: Fab clone 2a-4 (Fab, V domains shown)
VH: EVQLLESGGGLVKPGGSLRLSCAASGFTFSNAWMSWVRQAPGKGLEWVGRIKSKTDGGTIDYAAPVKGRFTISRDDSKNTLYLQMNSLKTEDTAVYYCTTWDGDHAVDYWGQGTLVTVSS
VL: AELTQSPSSLSASIGDRVAISCQASQDIGNYLNWYQQKPGKAPRLLIYDASNLEAGVPSRFSGSGSGTDFTLTISTLQPEDFATFYCQQTDSTPYTFGQGTKLEIR
notes: as for B6
B12: Fab clone 2b-9 (Fab, V domains shown)
VH: LLESGPGLVQPSQTLSLTYAISGDSVSSNSAAWTWIRQSPSRGLEWLGMTYYRSQWYHEYAVSLKSRITINADTSNNQFSLQVNSVTPEDTALYYCARARFVGDTTGYYTFDYWGQGTLVTVSS
VL: AELTQSPGTLSLSPGERGTLSCRASQSVSSSYLAWYQQKAGQAPRLLIYGASSRATGIPDRFSGSGSGTDFTLTISRLEPEDFAVYYCQRYGTSPKTFGQGTKVEFK
notes: Human Fab (gamma1 Fd + kappa), crude periplasmic preparation, approx. 0.19 ug Fab/ml
B13: Fab clone 2a-25 (Fab, V domains shown)
VH: VQLLEQSGAEVKKPGASVKVSCKASGYMFTCYYMHWVRQAPGQGLEWMGMVNPTGGSSSYAQKFQGRVTMTKGHVTSTVYMELSSLRSEDTAVYYCATGMVRGDEWGQGTLVTVSS
VL: AELTQSPSFSSASVGDRVTITCRASHGISSHLAWFQHKPGKAPNLLIYAASTLQSGVPSRFSGSQSGTEFTLTITSLHPEDFATYYCQQLYTWPMGFGQGTRLEIT
notes: Human Fab (gamma1 Fd + kappa), crude periplasmic preparation, approx. 0.11 ug Fab/ml
B14: Fab clone 2a-23 (Fab, V domains shown)
VH: EVQLLESGAGVVQPGKSLTLSCVGSGFTFSIYAMHWVRQAPGKGLEWVAVLSSDGSNDYYADSVKGRFSIFRDTSKNSLNLLMNNVRGEDTAVYYCARDGDGSFFYWGQGTLVTVSS
VL: B5 VL
notes: Human Fab (gamma1 Fd + kappa), crude periplasmic preparation, approx. 0.50 ug Fab/ml
B15: Fab clone 98 (Fab, V domains shown)
VH: EVQLLEQSGAEVKKPGESLRISCRGSGYSFPNYWVSWVRQMPGKGLEWMGKIDPSDSETNYSPSFQGHVTISADKSLSIAYLQWNSLKASDTAMYHCARHKRGAPTYKDILTGYYVDGMDVWGQGTTDTVSS
VL: AELTQSPSSLSASVGDRVTITCQASPDISNYLNWYQQKPGKAPNLLIYGASSLQRGVPSRLSGSGSGTDFTLTIDSLQPEDFATYYCQQSYGSPHTFGQGTKVEIK
notes: Human Fab (gamma1 Fd + kappa light chain), tested as a crude periplasmic preparation, approx. 5 ug Fab/ml
B16: Fab clone 13 (Fab, V domains shown)
VH: EVQLLESGGGLVQPGRSLRLSCAASGFTFDDYGMHWVRQAPGKGLEWVSGLSWNSDNIGYADSVKGRFTISRDNAKNSLYLQMNSLKIEDTAFYYCAKAPRTLRFLEWHNVYFDLWGRGTLVTVSS
VL: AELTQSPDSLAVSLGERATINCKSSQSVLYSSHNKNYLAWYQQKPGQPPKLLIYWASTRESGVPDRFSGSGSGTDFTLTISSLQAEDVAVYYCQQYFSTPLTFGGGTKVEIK
notes: Human Fab (gamma1 Fd + kappa light chain), tested as a crude periplasmic preparation, approx. >3 ug Fab/ml

Biological target: T1, recombinant E1/E2 heterodimer protein (genotype 1a) (hepatitis C virus genotype 1a, UniProt P26664 192-383; P26664 384-746, limits assumed)
T1 construct: also called E1/E2 in complex; recombinant E1/E2 antigen
T1 sequence (P26664 192-383 limits assumed, chain 1 of 2): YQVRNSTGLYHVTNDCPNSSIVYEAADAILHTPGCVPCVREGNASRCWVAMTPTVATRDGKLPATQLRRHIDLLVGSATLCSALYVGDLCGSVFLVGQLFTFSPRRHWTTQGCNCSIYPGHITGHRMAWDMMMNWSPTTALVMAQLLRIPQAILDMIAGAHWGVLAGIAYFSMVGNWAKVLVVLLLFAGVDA
T1 sequence (P26664 384-746 limits assumed, chain 2 of 2): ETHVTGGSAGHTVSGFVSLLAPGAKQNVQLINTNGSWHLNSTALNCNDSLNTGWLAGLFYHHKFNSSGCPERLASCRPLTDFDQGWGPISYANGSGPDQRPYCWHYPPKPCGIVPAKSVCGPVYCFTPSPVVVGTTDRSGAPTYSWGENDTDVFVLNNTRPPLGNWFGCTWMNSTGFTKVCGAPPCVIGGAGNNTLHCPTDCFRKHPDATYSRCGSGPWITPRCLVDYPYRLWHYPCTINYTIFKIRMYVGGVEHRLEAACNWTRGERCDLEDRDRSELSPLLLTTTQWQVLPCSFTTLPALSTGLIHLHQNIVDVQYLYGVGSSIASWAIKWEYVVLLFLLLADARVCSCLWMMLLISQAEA
Test: ELISA, E1/E2 heterodimer coated; crude periplasmic Fab

Row | Binder | OD405 nm [OD405 nm]
1 | B1 | 0.53
2 | B2 | 0.67
3 | B3 | 0.08
4 | B4 | 0.09
5 | B5 | 0.09
6 | B6 | 0.17
7 | B7 | 0.2
8 | B8 | 0.12

Biological target: T2, recombinant soluble HCV E1 protein (hepatitis C virus)
T2 construct: It is not the cell-surface E1-myc construct (aa 174-359 of H77c) that was used for phage selection; also called recombinant E1; soluble E1 protein
Test: ELISA, recombinant E1 captured on GNA lectin; crude periplasmic Fab

Row | Binder | OD405 nm [OD405 nm]
9 | B9 | 1.05
10 | B10 | 0.24
11 | B1 | 0.75
12 | B11 | 1.18
13 | B12 | 0.33
14 | B2 | 0.96
15 | B3 | 0.89
16 | B13 | 1.46
17 | B4 | 0.15
18 | B5 | 0.36
19 | B14 | 1.47
20 | B15 | 0.2
21 | B7 | 0.97
22 | B8 | 0.2
23 | B16 | 0.2
